Measurements from US20230250154A1.

These binders were tested against Protease Mixtures (assay: cell-based or functional assay).

Protease Inhibition (% of WT); Protease Mixtures, IGD Substrate	Binder
125 % of WT	Variant A2M, bait region SEQ ID NO 128, P01023 24-1474 (protein) SVSGKPQYMVLVPSLLHTETTEKGCVLLSYLNETVTVSASLESVRGNRSLFTDLEAENDVLHCVAFAVPKSSSNEEVMFLTVQVKGPTQEFKKRTTVMVKNEDSLVFVQTDKSIYKPGQTVKFRVVSMDENFHPLNELIPLVYIQDPKGNRIAQWQSFQLEGGLKQFSFPLSSEPFQGSYKVVVQKKSGGRTEHPFTVEEFVLPKFEVQVTVPKIITILEEEMNVSVCGLYTYGKPVPGHVTVSICRKYSDASDCHGEDSQAFCEKFSGQLNSHGCFYQQVKTKVFQLKRKEYEMKLHTEAQIQEEGTVVELTGRQSSEITRTITKLSFVKVDSHFRQGIPFFGQVRLVDGKGVPIPNKVIFIRGNEANYYSNATTDEHGLVQFSINTTNVMGTSLTVRVNYKDRSPCYGYQWVSEEHEEAHHTAYLVFSPSKSFVHLEPMSHELPCGHTQTVQAHYILNGGTLLGLKKLSFYYLIMAKGGIVRTGTHGLLVKQEDMKGHFSISIPVKSDIAPVARLLIYAVLPTGDVIGDSAKYDVENCLANKVDLSFSPSQSLPASHAHLRVTAAPQSVCALRAVDQSVLLMKPDAELSASSVYNLLPEKDLTGFPGPLNDQDDEDCINRHNVYINGITYTPVSSTNEKDMYSFLEDMGLKAFTNSKIRKPKMCPQLEQYEMHGPSELEGRGSEAIPMSIPTKEEEGLGSIPENFFGVVEEPHTKLRKYFPETWIWDLVVVNSAGVAEVGVTVPDTITEWKAGAFCLSEDAGLGISSTASLRAFQPFFVELTMPYSVIRGEAFTLKATVLNYLPKCIRVSVQLEASPAFLAVPVEKEQAPHCICANGRQTVSWAVTPKSLGNVNFTVSAEALESQELCGTEVPSVPEHGRKDTVIKPLLVEPEGLEKETTFNSLLCPSGGEVSEELSLKLPPNVVEESARASVSVLGDILGSAMQNTQNLLQMPYGCGEQNMVLFAPNIYVLDYLNETQQLTPEIKSKAIGYLNTGYQRQLNYKHYDGSYSTFGERYGRNQGNTWLTAFVLKTFAQARAYIFIDEAHITQALIWLSQRQKDNGCFRSSGSLLNNAIKGGVEDEVTLSAYITIALLEIPLTVTHPVVRNALFCLESAWKTAQEGDHGSHVYTKALLAYAFALAGNQDKRKEVLKSLNEEAVKKDNSVHWERPQKPKAPVGHFYEPQAPSAEVEMTSYVLLAYLTAQPAPTSEDLTSATNIVKWITKQQNAQGGFSSTQDTVVALHALSKYGAATFTRTGKAAQVTIQSSGTFSSKFQVDNNNRLLLQQVSLPELPGEYSMKVTGEGCVYLQTSLKYNILPEKEEFPFALGVQTLPQTCDEPKAHTSFQISLSVSYTGSRSASNMAIVDVKMVSGFIPLKPTVKMLERSNHVSRTEVSSNHVLIYLDKVSNQTLSLFFTVLQDVPVRDLKPAIVKVYDYYETDEFAIAEYNAPCSKDLGNADYKDDDDKGASHHHHHH
150 % of WT	Variant A2M, bait region SEQ ID NO 131, P01023 24-1474 (protein) SVSGKPQYMVLVPSLLHTETTEKGCVLLSYLNETVTVSASLESVRGNRSLFTDLEAENDVLHCVAFAVPKSSSNEEVMFLTVQVKGPTQEFKKRTTVMVKNEDSLVFVQTDKSIYKPGQTVKFRVVSMDENFHPLNELIPLVYIQDPKGNRIAQWQSFQLEGGLKQFSFPLSSEPFQGSYKVVVQKKSGGRTEHPFTVEEFVLPKFEVQVTVPKIITILEEEMNVSVCGLYTYGKPVPGHVTVSICRKYSDASDCHGEDSQAFCEKFSGQLNSHGCFYQQVKTKVFQLKRKEYEMKLHTEAQIQEEGTVVELTGRQSSEITRTITKLSFVKVDSHFRQGIPFFGQVRLVDGKGVPIPNKVIFIRGNEANYYSNATTDEHGLVQFSINTTNVMGTSLTVRVNYKDRSPCYGYQWVSEEHEEAHHTAYLVFSPSKSFVHLEPMSHELPCGHTQTVQAHYILNGGTLLGLKKLSFYYLIMAKGGIVRTGTHGLLVKQEDMKGHFSISIPVKSDIAPVARLLIYAVLPTGDVIGDSAKYDVENCLANKVDLSFSPSQSLPASHAHLRVTAAPQSVCALRAVDQSVLLMKPDAELSASSVYNLLPEKDLTGFPGPLNDQDDEDCINRHNVYINGITYTPVSSTNEKDMYSFLEDMGLKAFTNSKIRKPKMCPQLEQYEMHGPEGEGEGEGISEDLVVQIPENFFGVKEEEGLGSVEEPHTKLRKYFPETWIWDLVVVNSAGVAEVGVTVPDTITEWKAGAFCLSEDAGLGISSTASLRAFQPFFVELTMPYSVIRGEAFTLKATVLNYLPKCIRVSVQLEASPAFLAVPVEKEQAPHCICANGRQTVSWAVTPKSLGNVNFTVSAEALESQELCGTEVPSVPEHGRKDTVIKPLLVEPEGLEKETTFNSLLCPSGGEVSEELSLKLPPNVVEESARASVSVLGDILGSAMQNTQNLLQMPYGCGEQNMVLFAPNIYVLDYLNETQQLTPEIKSKAIGYLNTGYQRQLNYKHYDGSYSTFGERYGRNQGNTWLTAFVLKTFAQARAYIFIDEAHITQALIWLSQRQKDNGCFRSSGSLLNNAIKGGVEDEVTLSAYITIALLEIPLTVTHPVVRNALFCLESAWKTAQEGDHGSHVYTKALLAYAFALAGNQDKRKEVLKSLNEEAVKKDNSVHWERPQKPKAPVGHFYEPQAPSAEVEMTSYVLLAYLTAQPAPTSEDLTSATNIVKWITKQQNAQGGFSSTQDTVVALHALSKYGAATFTRTGKAAQVTIQSSGTFSSKFQVDNNNRLLLQQVSLPELPGEYSMKVTGEGCVYLQTSLKYNILPEKEEFPFALGVQTLPQTCDEPKAHTSFQISLSVSYTGSRSASNMAIVDVKMVSGFIPLKPTVKMLERSNHVSRTEVSSNHVLIYLDKVSNQTLSLFFTVLQDVPVRDLKPAIVKVYDYYETDEFAIAEYNAPCSKDLGNADYKDDDDKGASHHHHHH
160 % of WT	Variant A2M, bait region SEQ ID NO 129, P01023 24-1474 (protein) SVSGKPQYMVLVPSLLHTETTEKGCVLLSYLNETVTVSASLESVRGNRSLFTDLEAENDVLHCVAFAVPKSSSNEEVMFLTVQVKGPTQEFKKRTTVMVKNEDSLVFVQTDKSIYKPGQTVKFRVVSMDENFHPLNELIPLVYIQDPKGNRIAQWQSFQLEGGLKQFSFPLSSEPFQGSYKVVVQKKSGGRTEHPFTVEEFVLPKFEVQVTVPKIITILEEEMNVSVCGLYTYGKPVPGHVTVSICRKYSDASDCHGEDSQAFCEKFSGQLNSHGCFYQQVKTKVFQLKRKEYEMKLHTEAQIQEEGTVVELTGRQSSEITRTITKLSFVKVDSHFRQGIPFFGQVRLVDGKGVPIPNKVIFIRGNEANYYSNATTDEHGLVQFSINTTNVMGTSLTVRVNYKDRSPCYGYQWVSEEHEEAHHTAYLVFSPSKSFVHLEPMSHELPCGHTQTVQAHYILNGGTLLGLKKLSFYYLIMAKGGIVRTGTHGLLVKQEDMKGHFSISIPVKSDIAPVARLLIYAVLPTGDVIGDSAKYDVENCLANKVDLSFSPSQSLPASHAHLRVTAAPQSVCALRAVDQSVLLMKPDAELSASSVYNLLPEKDLTGFPGPLNDQDDEDCINRHNVYINGITYTPVSSTNEKDMYSFLEDMGLKAFTNSKIRKPKMCPQLEQYEMHGPEAIPMSIPTEGEGEGEGIPENFFGVSEDLVVQIVEEPHTKLRKYFPETWIWDLVVVNSAGVAEVGVTVPDTITEWKAGAFCLSEDAGLGISSTASLRAFQPFFVELTMPYSVIRGEAFTLKATVLNYLPKCIRVSVQLEASPAFLAVPVEKEQAPHCICANGRQTVSWAVTPKSLGNVNFTVSAEALESQELCGTEVPSVPEHGRKDTVIKPLLVEPEGLEKETTFNSLLCPSGGEVSEELSLKLPPNVVEESARASVSVLGDILGSAMQNTQNLLQMPYGCGEQNMVLFAPNIYVLDYLNETQQLTPEIKSKAIGYLNTGYQRQLNYKHYDGSYSTFGERYGRNQGNTWLTAFVLKTFAQARAYIFIDEAHITQALIWLSQRQKDNGCFRSSGSLLNNAIKGGVEDEVTLSAYITIALLEIPLTVTHPVVRNALFCLESAWKTAQEGDHGSHVYTKALLAYAFALAGNQDKRKEVLKSLNEEAVKKDNSVHWERPQKPKAPVGHFYEPQAPSAEVEMTSYVLLAYLTAQPAPTSEDLTSATNIVKWITKQQNAQGGFSSTQDTVVALHALSKYGAATFTRTGKAAQVTIQSSGTFSSKFQVDNNNRLLLQQVSLPELPGEYSMKVTGEGCVYLQTSLKYNILPEKEEFPFALGVQTLPQTCDEPKAHTSFQISLSVSYTGSRSASNMAIVDVKMVSGFIPLKPTVKMLERSNHVSRTEVSSNHVLIYLDKVSNQTLSLFFTVLQDVPVRDLKPAIVKVYDYYETDEFAIAEYNAPCSKDLGNADYKDDDDKGASHHHHHH
